The source of these data is article PMC3240985.

Substrate in this data set: O=C(O)[C@@H](COP(=O)(O)O)O[C@H]1O[C@H](CO)[C@@H](O)[C@H](O)[C@H]1O
The data set can be described thus: purified protein. The conditions noted are these: pH 7.5; 37.0 °C.

B1: mGpgP (Rv2419c), recombinant GpgP from M. tuberculosis (Mycobacterium tuberculosis H37Rv) (protein)
chain: MRARRLVMLRHGQTDYNVGSRMQGQLDTELSELGRTQAVAAAEVLGKRQPLLIVSSDLRRAYDTAVKLGERTGLVVRVDTRLRETHLGDWQGLTHAQIDADAPGARLAWREDATWAPHGGESRVDVAARSRPLVAELVASEPEWGGADEPDRPVVLVAHGGLIAALSAALLKLPVANWPALGGMGNASWTQLSGHWAPGSDFESIRWRLDVWNASAQVSSDVL
The Km is the substrate concentration at which the rate is half of its maximum. Regarding B1, the Km came to 350 ± 30 µM.
